Experimental data taken from paper PMC9106297, “Structure of a TRAPPII-Rab11 activation intermediate reveals GTPase substrate selection mechanisms” (Science Advances, 2022).

B1: Bet3 (TRAPP core subunit, in purified TRAPPII) (natural protein, S. cerevisiae, UniProt P36149 1-193, looked up)
chain: MVSTTQSRSLKAMGEEIWKNKTEKINTELFTLTYGSIVAQLCQDYERDFNKVNDHLYSMGYNIGCRLIEDFLARTALPRCENLVKTSEVLSKCAFKIFLNITPNITNWSHNKDTFSLILDENPLADFVELPMDAMKSLWYSNILCGVLKGSLEMVQLDCDVWFVSDILRGDSQTEIKVKLNRILKDEIPIGED
notes: Bet3, S. cerevisiae, endogenous; source: endogenous, purified from S. cerevisiae as a subunit of TRAPPII
B2: Bet5 (TRAPP core subunit, in purified TRAPPII) (natural protein, S. cerevisiae, UniProt Q03630 1-159, looked up)
chain: MGIYSFWIFDRHCNCIFDREWTLASNSASGTINSKQNEEDAKLLYGMIFSLRSITQKLSKGSVKNDIRSISTGKYRVHTYCTASGLWFVLLSDFKQQSYTQVLQYIYSHIYVKYVSNNLLSPYDFAENENEMRGQGTRKITNRNFISVLESFLAPMVNQ
notes: Bet5, S. cerevisiae, endogenous; source: endogenous, purified from S. cerevisiae as a subunit of TRAPPII
B3: Trs23 (TRAPP core subunit, in purified TRAPPII) (natural protein, S. cerevisiae, UniProt Q03784 1-219, looked up)
chain: MAIETILVINKSGGLIYQRNFTNDEQKLNSNEYLILASTLHGVFAIASQLTPKALQLTQQTNIENTIPYIPYVGMSSNRSDTRNGGGNNNKHTNNEKLGSFKGDDFFKEPFTNWNKSGLRQLCTDQFTMFIYQTLTGLKFVAISSSVMPQRQPTIATTDKPDRPKSTSNLAIQIADNFLRKVYCLYSDYVMKDPSYSMEMPIRSNLFDEKVKKMVENLQ
notes: Trs23, S. cerevisiae, endogenous; source: endogenous, purified from S. cerevisiae as a subunit of TRAPPII
B4: Rab11/Ypt32-7xHis (natural protein, S. cerevisiae, UniProt P51996 1-220, looked up)
chain: MSNEDYGYDYDYLFKIVLIGDSGVGKSNLLSRFTTDEFNIESKSTIGVEFATRTIEVENKKIKAQIWDTAGQERYRAITSAYYRGAVGALIVYDISKSSSYENCNHWLTELRENADDNVAVGLIGNKSDLAHLRAVPTDEAKNFAMENQMLFTETSALNSDNVDKAFRELIVAIFQMVSKHQVDLSGSGTNNMGSNGAPKGPTISLTPAPKEDKKKKSSN
notes: Ypt32 (yeast Rab11 paralog), S. cerevisiae; the C-terminal cysteines (residues 221 and 222) were substituted with the 7xHis tag; Made nucleotide-free with calf intestine alkaline phosphatase for the complex with TRAPPII; also called nucleotide-free Rab11/Ypt32; not shown: GST, N-terminal, cleaved; 7xHis, C-terminal, kept
B5: Trs20 (TRAPP core subunit, in purified TRAPPII) (natural protein, S. cerevisiae, UniProt P38334 1-175, looked up)
chain: MPQYFAIIGKKDNPVYEIEFTNAENPQGFPQDLKELNPFILHASLDIVEDLQWQINPTSQLNGNGGNGSNGGGGFLRSRAVNNTDNCYLGKVDHFYGLAITAYISYSGMKFVMIHGNSANSSVVIDDNNMRSFYQEVHELYVKTLMNPFYKITDPIRSPAFDSRVRTLARKHLSK
notes: Trs20, S. cerevisiae, endogenous; source: endogenous, purified from S. cerevisiae as a subunit of TRAPPII

Columns and labels:
Assay in all cases: cryo-EM structure; TRAPPII purified from yeast, incubated with tenfold molar excess of Rab11/Ypt32-7xHis and calf intestine alkaline phosphatase at 4°C overnight (nucleotide-free Rab), complex purified on Calmodulin Sepharose and by SEC; 10 mM tris (pH 8.0), 150 mM NaCl, 0.1% CHAPS, 1 mM Mg acetate, 1 mM dithiothreitol; single-particle cryo-EM
Conditions in all cases: both partners purified
Rab11/Ypt32-7xHis = target: B4
[1] = target: T1, Trs31 (TRAPP core subunit, in purified TRAPPII) (S. cerevisiae, UniProt Q03337 1-283)
T1 construct: Trs31, S. cerevisiae, endogenous; source: endogenous, purified from S. cerevisiae as a subunit of TRAPPII
T1 sequence (looked up): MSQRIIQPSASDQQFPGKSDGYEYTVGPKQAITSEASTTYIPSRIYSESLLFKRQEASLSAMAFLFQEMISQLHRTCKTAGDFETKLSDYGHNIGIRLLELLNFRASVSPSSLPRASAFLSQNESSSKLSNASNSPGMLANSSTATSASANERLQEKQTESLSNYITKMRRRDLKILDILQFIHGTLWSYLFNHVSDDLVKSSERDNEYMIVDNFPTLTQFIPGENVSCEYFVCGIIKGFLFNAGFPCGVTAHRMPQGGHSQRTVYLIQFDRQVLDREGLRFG

[2] = target: T2, Trs120 (TRAPPII-specific subunit, in purified TRAPPII) (S. cerevisiae, UniProt Q04183 1-1289)
T2 construct: Trs120, S. cerevisiae, endogenous; also called Trs120 lid; source: endogenous, purified from S. cerevisiae as a subunit of TRAPPII
T2 sequence (looked up): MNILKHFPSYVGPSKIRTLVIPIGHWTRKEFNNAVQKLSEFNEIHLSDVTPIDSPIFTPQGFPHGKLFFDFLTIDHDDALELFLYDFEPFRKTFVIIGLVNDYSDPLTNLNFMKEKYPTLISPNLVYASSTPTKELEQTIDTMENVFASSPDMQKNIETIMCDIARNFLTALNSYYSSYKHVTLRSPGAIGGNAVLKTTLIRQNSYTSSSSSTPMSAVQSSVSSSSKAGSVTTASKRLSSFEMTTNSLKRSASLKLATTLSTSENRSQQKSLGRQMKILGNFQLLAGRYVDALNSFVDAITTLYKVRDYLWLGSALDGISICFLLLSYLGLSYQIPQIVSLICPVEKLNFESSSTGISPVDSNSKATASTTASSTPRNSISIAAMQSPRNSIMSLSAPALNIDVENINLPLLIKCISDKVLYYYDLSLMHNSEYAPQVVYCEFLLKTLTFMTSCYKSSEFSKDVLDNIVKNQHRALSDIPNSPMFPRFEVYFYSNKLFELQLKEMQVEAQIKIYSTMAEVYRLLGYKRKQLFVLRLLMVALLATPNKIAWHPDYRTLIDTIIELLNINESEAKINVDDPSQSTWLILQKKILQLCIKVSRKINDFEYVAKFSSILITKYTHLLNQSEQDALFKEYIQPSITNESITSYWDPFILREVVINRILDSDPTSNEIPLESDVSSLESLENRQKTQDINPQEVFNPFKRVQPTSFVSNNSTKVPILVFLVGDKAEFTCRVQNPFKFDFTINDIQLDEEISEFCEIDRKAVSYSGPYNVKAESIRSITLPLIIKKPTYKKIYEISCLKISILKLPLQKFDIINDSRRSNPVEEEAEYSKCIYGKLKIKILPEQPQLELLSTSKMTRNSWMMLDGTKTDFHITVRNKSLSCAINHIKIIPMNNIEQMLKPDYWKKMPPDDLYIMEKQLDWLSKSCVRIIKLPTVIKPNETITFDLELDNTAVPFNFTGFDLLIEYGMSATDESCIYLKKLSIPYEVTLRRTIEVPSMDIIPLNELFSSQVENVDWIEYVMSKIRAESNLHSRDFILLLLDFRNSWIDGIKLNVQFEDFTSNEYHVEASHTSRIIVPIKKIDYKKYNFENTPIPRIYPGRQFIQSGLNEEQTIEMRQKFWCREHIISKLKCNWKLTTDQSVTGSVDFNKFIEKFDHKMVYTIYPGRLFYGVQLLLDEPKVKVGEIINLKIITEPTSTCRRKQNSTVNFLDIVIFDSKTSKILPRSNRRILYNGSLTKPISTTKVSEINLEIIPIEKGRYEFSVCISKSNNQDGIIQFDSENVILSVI

Binder	binding result (Rab11/Ypt32-7xHis)	binding result [1]	binding result [2]
B1	binds		
B2	binds		
B3	binds		
B4		binds	binds
B5			binds
